From patent US20240066131A1 (Protagonist Therapeutics, Inc., priority 2020, published 2024)
Non-standard residues stand in square brackets, D forms with d. Groups on a side chain read outwards from the residue. No end group written: not given here. *: point of attachment. PeptoidIsovaleric Acid = not defined here; Dip = N[C@H](C(=O)O)C(c1ccccc1)c1ccccc1; Palmitoyl = CCCCCCCCCCCCCCCC(=O)*; β3hF = N[C@H](CC(=O)O)Cc1ccccc1; Isovaleryl = CC(C)CC(=O)*; Ahx = NCCCCCC(=O)O

B1: Isovaleric Acid-E-T-H-[Dpa]-P-d[Lys(Gal)]-I-[Lys(Ahx_Palm)]-[bhPhe]-NH2 (peptide)
peptide: Isovaleryl-ETH[Dip]P[dK](Gal)IK([Ahx-Palmitoyl])[β3hF]-NH2
B2: Isovaleric Acid-E-T-H-[Dpa]-A-A-I-[(D)Lys]-[bhPhe]-[Lys(Ahx_Palm)]-[(D)Lys]-A-NH2 (peptide)
peptide: Isovaleryl-ETH[Dip]AAI[dK][β3hF]K([Ahx-Palmitoyl])[dK]A-NH2
SMILES: CCCCCCCCCCCCCCCC(=O)NCCCCCC(=O)NCCCC[C@H](NC(=O)C[C@H](Cc1ccccc1)NC(=O)[C@@H](CCCCN)NC(=O)[C@@H](NC(=O)[C@H](C)NC(=O)[C@H](C)NC(=O)[C@@H](NC(=O)[C@H](Cc1c[nH]cn1)NC(=O)[C@@H](NC(=O)[C@H](CCC(=O)O)NC(=O)CC(C)C)[C@@H](C)O)C(c1ccccc1)c1ccccc1)[C@@H](C)CC)C(=O)N[C@H](CCCCN)C(=O)N[C@@H](C)C(N)=O
B3: Isovaleric Acid-E-T-H-A-P-A-I-[(D)Lys]-[bhPhe]-[Lys(Ahx_Palm)]-[(D)Lys]-A-NH2 (peptide)
peptide: Isovaleryl-ETHAPAI[dK][β3hF]K([Ahx-Palmitoyl])[dK]A-NH2
SMILES: CCCCCCCCCCCCCCCC(=O)NCCCCCC(=O)NCCCC[C@H](NC(=O)C[C@H](Cc1ccccc1)NC(=O)[C@@H](CCCCN)NC(=O)[C@@H](NC(=O)[C@H](C)NC(=O)[C@@H]1CCCN1C(=O)[C@H](C)NC(=O)[C@H](Cc1c[nH]cn1)NC(=O)[C@@H](NC(=O)[C@H](CCC(=O)O)NC(=O)CC(C)C)[C@@H](C)O)[C@@H](C)CC)C(=O)N[C@H](CCCCN)C(=O)N[C@@H](C)C(N)=O
B4: Isovaleric Acid-E-T-H-[Dpa]-P-A-I-[Lys(Ahx_Palm)]-d[Lys(Gal-NH2 (peptide)
peptide: Isovaleryl-ETH[Dip]PAIK([Ahx-Palmitoyl])[dK](Gal)-NH2
B5: Isovaleric Acid-d[Lys(Gal-T-H-[Dpa]-P-A-I-[Lys(Ahx_Palm)]-[bhPhe]-NH2 (peptide)
peptide: Isovaleryl-[dK](Gal)TH[Dip]PAIK([Ahx-Palmitoyl])[β3hF]-NH2
B6: [Lys(IVA(1:1)-T-H-[Dpa]-P-A-I-[Lys(Ahx_Palm)]-bhF(1:2) (peptide)
peptide: K(Isovaleryl)TH[Dip]PAIK([Ahx-Palmitoyl])[bhF]
modifications: also: marks (1:1) at Lys1 and (1:2) at bhF9 not explained
B7: PeptoidIsovaleric Acid-E-T-H-[Dpa]-P-A-I-[Lys(Ahx_Palm)]-[bhPhe]-NH2 (peptide)
peptide: {PeptoidIsovaleric Acid}-ETH[Dip]PAIK([Ahx-Palmitoyl])[β3hF]-NH2
modifications: reading uncertain
B8: Isovaleric Acid-K-T-H-[Dpa]-P-A-I-[Lys(Ahx_Palm)]-[bhPhe] (peptide)
peptide: Isovaleryl-KTH[Dip]PAIK([Ahx-Palmitoyl])[β3hF]
B9: Isovaleric Acid-[Lys(Gal)]-T-H-[Dpa]-P-A-I-[Lys(Ahx_Palm)]-[bhPhe]-NH2 (peptide)
peptide: Isovaleryl-K(Gal)TH[Dip]PAIK([Ahx-Palmitoyl])[β3hF]-NH2
B10: Isovaleric Acid-E-T-H-[Dpa]-d[Lys(Gal)]-A-I-[Lys(Ahx_Palm)]-[bhPhe]-NH2 (peptide)
peptide: Isovaleryl-ETH[Dip][dK](Gal)AIK([Ahx-Palmitoyl])[β3hF]-NH2
B11: Isovaleric Acid-E-T-H-F-P-A-I-[Lys(Ahx_Palm)]-F-E-P-R-S-K-G-A-K-NH2 (peptide)
peptide: Isovaleryl-ETHFPAIK([Ahx-Palmitoyl])FEPRSKGAK-NH2
SMILES: CCCCCCCCCCCCCCCC(=O)NCCCCCC(=O)NCCCC[C@H](NC(=O)[C@@H](NC(=O)[C@H](C)NC(=O)[C@@H]1CCCN1C(=O)[C@H](Cc1ccccc1)NC(=O)[C@H](Cc1c[nH]cn1)NC(=O)[C@@H](NC(=O)[C@H](CCC(=O)O)NC(=O)CC(C)C)[C@@H](C)O)[C@@H](C)CC)C(=O)N[C@@H](Cc1ccccc1)C(=O)N[C@@H](CCC(=O)O)C(=O)N1CCC[C@H]1C(=O)N[C@@H](CCCNC(=N)N)C(=O)N[C@@H](CO)C(=O)N[C@@H](CCCCN)C(=O)NCC(=O)N[C@@H](C)C(=O)N[C@@H](CCCCN)C(N)=O

Target: T1, human ferroportin (SLC40A1) fused in frame with GFP, stably expressed in HEK293 cells (human, UniProt Q9NP59 1-571)
T1 sequence (looked up): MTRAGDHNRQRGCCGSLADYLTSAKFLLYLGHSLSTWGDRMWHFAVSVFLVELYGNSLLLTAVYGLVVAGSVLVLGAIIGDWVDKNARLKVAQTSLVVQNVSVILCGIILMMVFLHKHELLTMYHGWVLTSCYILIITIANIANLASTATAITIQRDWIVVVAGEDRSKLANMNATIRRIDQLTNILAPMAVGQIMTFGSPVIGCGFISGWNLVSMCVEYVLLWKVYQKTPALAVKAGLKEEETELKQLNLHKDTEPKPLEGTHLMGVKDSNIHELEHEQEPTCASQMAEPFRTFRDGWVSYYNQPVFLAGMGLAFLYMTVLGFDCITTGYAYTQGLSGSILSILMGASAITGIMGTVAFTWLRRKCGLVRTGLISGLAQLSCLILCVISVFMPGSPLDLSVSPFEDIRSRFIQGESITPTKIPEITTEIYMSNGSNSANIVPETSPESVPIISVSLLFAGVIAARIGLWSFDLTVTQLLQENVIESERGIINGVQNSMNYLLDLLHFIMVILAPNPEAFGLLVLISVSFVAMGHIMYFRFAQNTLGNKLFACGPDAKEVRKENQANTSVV
Assay: cell-based or functional assay

Point of comparison: B7, “FPN IC50” value 1120 nM. Against it:
- B1 — 4.6-fold lower, 246 nM
- B2 — 6.1-fold lower, 183 nM
- B3 — higher, > 3000 nM
- B4 — 6.2-fold lower, 181 nM
- B5 — higher, > 3000 nM
- B6 — 1.9-fold higher, 2150 nM
- B8 — 8.9-fold lower, 126 nM
- B9 — 15-fold lower, 76 nM
- B10 — 1.7-fold lower, 654 nM

Target: T1, human ferroportin (SLC40A1) fused in …
Assay: cell-based or functional assay
Remark: another data set of the same source

With B11 the “FPN EC50” value was 177 nM.

Target: T2, ferroportin endogenously expressed on T47D cells (HTB 133, ATCC) (human, UniProt Q9NP59 1-571)
T2 sequence (looked up): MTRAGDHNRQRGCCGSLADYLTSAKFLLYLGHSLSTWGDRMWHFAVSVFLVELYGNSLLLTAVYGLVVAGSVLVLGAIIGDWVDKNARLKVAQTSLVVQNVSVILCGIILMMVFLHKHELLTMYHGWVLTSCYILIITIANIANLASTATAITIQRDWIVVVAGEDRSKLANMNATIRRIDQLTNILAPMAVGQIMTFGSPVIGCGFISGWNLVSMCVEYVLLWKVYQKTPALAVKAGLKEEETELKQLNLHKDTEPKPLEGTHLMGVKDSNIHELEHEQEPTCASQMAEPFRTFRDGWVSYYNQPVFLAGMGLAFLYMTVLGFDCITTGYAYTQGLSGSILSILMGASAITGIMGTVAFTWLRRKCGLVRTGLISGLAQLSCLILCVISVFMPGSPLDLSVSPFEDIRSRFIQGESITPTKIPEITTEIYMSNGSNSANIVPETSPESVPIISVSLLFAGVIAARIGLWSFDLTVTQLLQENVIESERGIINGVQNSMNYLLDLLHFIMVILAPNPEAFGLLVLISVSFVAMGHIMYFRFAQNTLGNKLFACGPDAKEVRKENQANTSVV
Assay: cell-based or functional assay

For B11, the “T47D MSA IC50” value was 11.4 nM.
